According to patent publication US20250092109A1 (XILIO DEVELOPMENT, published 2025):

B14: IL-2 V2 (ligand)
chain: APTSSSTKKTQLQLEHLLLDLQMILNGINNYKNPKLTAMLTAKFAMPKKATELKHLQCLEEALKPLEEVLNLAQSKNFHLRPRDLISNINVIVLELKGSETTFMCEYADETATIVEFLNRWITFAQSIISTLT

Legend:
[1] = biological target: B14; test: cell-based or functional assay
[2] = biological target: T1, IL-2 (UniProt P60568 21-153); test: SPR
T1 construct: also called interleukin 2
Target sequence in this assay (P60568 21-153 limits assumed): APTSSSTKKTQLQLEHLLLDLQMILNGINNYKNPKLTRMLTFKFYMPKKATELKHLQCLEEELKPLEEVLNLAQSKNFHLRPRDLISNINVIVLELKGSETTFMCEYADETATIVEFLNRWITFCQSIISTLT

[3] = biological target: IL-2 V3 (Homo sapiens (Human), UniProt P60568 21-153); test: cell-based or functional assay
[4] = biological target: T1, IL-2; test: SPR, criterion of kinetic Group 2
[5] = biological target: T2, CD25 on CD25+ cells (UniProt P01589 22-272, limits assumed); test: cell-based or functional assay
T2 sequence (looked up): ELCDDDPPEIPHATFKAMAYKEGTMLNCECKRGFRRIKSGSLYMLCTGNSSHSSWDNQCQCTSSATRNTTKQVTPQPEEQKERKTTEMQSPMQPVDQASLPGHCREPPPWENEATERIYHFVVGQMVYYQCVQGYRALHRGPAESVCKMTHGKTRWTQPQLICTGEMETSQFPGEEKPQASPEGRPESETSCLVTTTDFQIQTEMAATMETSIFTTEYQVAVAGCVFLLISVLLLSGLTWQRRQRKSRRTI

B1: VHH1 (VHH)
VHH: EVQLVESGGGLVQPGGSLRLSCAASGSIFSINVMGWYRQAPGKQRELVAAISSGGSTNYADSVKGRFTISRDNAKNTVYLQMNSLKPEDTAVYYCMYASSWYEDETDYWGQGTQVTVSS
notes: In the functional rows it stood as the masking moiety of constructs C7, C2, C4 and C6, fused to an Fc chain; also called Parental; parental anti-IL-2
EC50 (pM) of intact construct C7, HEK Blue cell-based reporter assay [1]: 3390 pM | Fold Change (Intact/Cleaved), construct C7, HEK Blue assay [1]: 112 fold | Fold Change (Intact/Parental), construct C7, HEK Blue assay [1]: 101 fold | Kd [2]: 0.0601 nM | koff [2]: 3.28e-05 s⁻¹ | kon [2]: 546000 M⁻¹ s⁻¹ | Average EC50 (nM) with MMP, construct C2, pSTAT5 on CD8+ T cells of hPBMCs [3]: 0.23 nM | Average EC50 (nM) with MMP, construct C4, pSTAT5 on CD8+ T cells of hPBMCs [3]: 0.26 nM | Average EC50 (nM) with MMP, construct C6, pSTAT5 on CD8+ T cells of hPBMCs [3]: 0.28 nM | Average EC50 (nM) without MMP, construct C2, pSTAT5 on CD8+ T cells of hPBMCs [3]: 137 nM | Average EC50 (nM) without MMP, construct C4, pSTAT5 on CD8+ T cells of hPBMCs [3]: 136 nM | Average EC50 (nM) without MMP, construct C6, pSTAT5 on CD8+ T cells of hPBMCs [3]: 470 nM | Fold Change (Cleaved/Unmasked Control), construct C2 [3]: 4.2 fold | Fold Change (Cleaved/Unmasked Control), construct C4 [3]: 4.7 fold | Fold Change (Cleaved/Unmasked Control), construct C6 [3]: 5.1 fold | Fold Masking (Uncleaved/Unmasked Control), construct C2 [3]: 2490 fold | Fold Masking (Uncleaved/Unmasked Control), construct C4 [3]: 2470 fold | Fold Masking (Uncleaved/Unmasked Control), construct C6 [3]: 8550 fold

B2: VHH5 (VHH)
VHH: EVQLVESGGGLVQPGGSLRLSCAASGSIFSINVMGWYRQAPGKQRELVAAISSGGSTNYADSVKGRFTISRDNAKNTVYLQMNSLKPEDTAVYYCAYASSWYEDETDYWGQGTQVTVSS
notes: also called M96A
kd relative to VHH1 kd [4]: > 6 fold of VHH1 kd

B3: VHH6 (VHH)
VHH: EVQLVESGGGLVQPGGSLRLSCAASGSIFSINVMGWYRQAPGKGRELVAAISSGGSTNYADSVKGRFTISRDNAKNTVYLQMNSLKPEDTAVYYCMYASSWYEDETDYWGQGTQVTVSS
notes: In the functional rows it stood as the masking moiety of construct C8; also called Q44G
EC50 (pM) of intact construct C8, HEK Blue cell-based reporter assay [1]: 4270 pM | Fold Change (Intact/Cleaved), construct C8, HEK Blue assay [1]: 176 fold | Fold Change (Intact/Parental), construct C8, HEK Blue assay [1]: 127 fold | Kd [2]: 0.00457 nM | koff [2]: 2.18e-06 s⁻¹ | kon [2]: 476000 M⁻¹ s⁻¹

B4: VHH7 (VHH)
VHH: EVQLVESGGGLVQPGGSLRLSCAASGSIFSINVMGWYRQAPGKGLELVAAISSGGSTNYADSVKGRFTISRDNAKNTVYLQMNSLKPEDTAVYYCMYASSWYEDETDYWGQGTQVTVSS
notes: In the functional rows it stood as the masking moiety of construct C9; also called Q44G, R45L
EC50 (pM) of intact construct C9, HEK Blue cell-based reporter assay [1]: 6240 pM | Fold Change (Intact/Cleaved), construct C9, HEK Blue assay [1]: 201 fold | Fold Change (Intact/Parental), construct C9, HEK Blue assay [1]: 186 fold | Kd [2]: 0.187 nM | koff [2]: 0.000111 s⁻¹ | kon [2]: 595000 M⁻¹ s⁻¹

B5: VHH9 (VHH)
VHH: EVQLVESGGGLVQPGGSLRLSCAASGSIFSINVMGWYRQAPGKGRELVAAISSGGSTNYADSVKGRFTISRDNAKNTVYLQMNSLKPEDTAVYYCAYASSFYEDETDYWGQGTQVTVSS
notes: In the functional rows it stood as the masking moiety of construct C12; also called Q44G, M96A, W101F
EC50 (pM) of intact construct C12, HEK Blue cell-based reporter assay [1]: 4140 pM | Fold Change (Intact/Cleaved), construct C12, HEK Blue assay [1]: 180 fold | Fold Change (Intact/Parental), construct C12, HEK Blue assay [1]: 123 fold | Kd [2]: 10.9 nM

B6: VHH12 (VHH)
VHH: EVQLVESGGGLVQPGGSLRLSCAASGSIFSINVMGWYRQAPGKGRELVAAISSGGSTNYADSVKGRFTISRDNAKNTVYLQMNSLKPEDTAVYYCAYASSYYEDETDYWGQGTQVTVSS
notes: In the functional rows it stood as the masking moiety of constructs C13 and C1; also called Q44G, M96A, W101Y
EC50 (pM) of intact construct C13, HEK Blue cell-based reporter assay [1]: 3130 pM | Fold Change (Intact/Cleaved), construct C13, HEK Blue assay [1]: 158 fold | Fold Change (Intact/Parental), construct C13, HEK Blue assay [1]: 93.1 fold | Kd [2]: 12.7 nM | koff [2]: 3.97 s⁻¹ | Average EC50 (nM) with MMP, construct C1, pSTAT5 on CD8+ T cells of hPBMCs [3]: 0.051 nM | Average EC50 (nM) without MMP, construct C1, pSTAT5 on CD8+ T cells of hPBMCs [3]: 28.1 nM | Fold Change (Cleaved/Unmasked Control), construct C1 [3]: 0.9 fold | Fold Masking (Uncleaved/Unmasked Control), construct C1 [3]: 511 fold

B7: VHH21 (VHH)
VHH: EVQLVESGGGLVQPGGSLRLSCAASGSIFSSNVMGWYRQAPGKQRELVAAISSGGSTNYADSVKGRFTISRDNAKNTVYLQMNSLKPEDTAVYYCAYASSFYEDETDYWGQGTQVTVSS
notes: also called I31S, M96A, W101F
kd relative to VHH1 kd [4]: > 6 fold of VHH1 kd

B8: VHH26 (VHH)
VHH: EVQLVESGGGLVQPGGSLRLSCAASGSIFSSNVMGWYRQAPGKQRELVAAISSGGSTNYADSVKGRFTISRDNAKNTVYLQMNSLKPEDTAVYYCAYASSYYEDETDYWGQGTQVTVSS
notes: In the functional rows it stood as the masking moiety of construct C10; also called I31S, M96A, W101Y
EC50 (pM) of intact construct C10, HEK Blue cell-based reporter assay [1]: 3970 pM | Fold Change (Intact/Cleaved), construct C10, HEK Blue assay [1]: 202 fold | Fold Change (Intact/Parental), construct C10, HEK Blue assay [1]: 118 fold | Kd [2]: 1.35 nM | koff [2]: 0.00427 s⁻¹ | kon [2]: 3.15e+06 M⁻¹ s⁻¹ | kd relative to VHH1 kd [4]: > 6 fold of VHH1 kd

B9: VHH31 (VHH)
VHH: EVQLVESGGGLVQPGGSLRLSCAASGSIFSSNVMGWYRQAPGKGLELVAAISSGGSTNYADSVKGRFTISRDNAKNTVYLQMNSLKPEDTAVYYCAYASSFYEDETDYWGQGTQVTVSS
notes: also called I31S, Q44G, R45L, M96A, W101F
kd relative to VHH1 kd [4]: > 6 fold of VHH1 kd

B10: VHH36 (VHH)
VHH: EVQLVESGGGLVQPGGSLRLSCAASGSIFSSNVMGWYRQAPGKGLELVAAISSGGSTNYADSVKGRFTISRDNAKNTVYLQMNSLKPEDTAVYYCAYASSYYEDETDYWGQGTQVTVSS
notes: In the functional rows it stood as the masking moiety of construct C11; also called I31S, Q44G, R45L, M96A, W101Y
EC50 (pM) of intact construct C11, HEK Blue cell-based reporter assay [1]: 2860 pM | Fold Change (Intact/Cleaved), construct C11, HEK Blue assay [1]: 118 fold | Fold Change (Intact/Parental), construct C11, HEK Blue assay [1]: 84.9 fold | Kd [2]: 3.99 nM | koff [2]: 0.00237 s⁻¹ | kon [2]: 594000 M⁻¹ s⁻¹ | kd relative to VHH1 kd [4]: > 6 fold of VHH1 kd

B11: VHH40 (VHH)
VHH: EVQLVESGGGLVQPGGSLRLSCAASGSIFSINVMGWYRQAPGKQRELVAAISSGGSTNYADSVKGRFTISRDNAKNTVYLQMNSLKPEDTAVYYCMYASSWYEDETDYRGQGTLVTVSS
notes: also called W109R, Q114L
kd relative to VHH1 kd [4]: > 6 fold of VHH1 kd

B12: VHH46 (VHH)
VHH: EVQLVESGGGLVQPGGSLRLSCAASGSIFSINVMGWYRQAPGKQRELVAAISSGGSTNYADSVKGRFTISRDNAKNTVYLQMNSLKPEDTAVYYCMYASSWYEDETDYWGQGTQVTVSS
Average EC50 (nM) with MMP, construct C5, pSTAT5 on CD8+ T cells of hPBMCs [3]: 0.25 nM | Average EC50 (nM) without MMP, construct C5, pSTAT5 on CD8+ T cells of hPBMCs [3]: 411 nM | Fold Change (Cleaved/Unmasked Control), construct C5 [3]: 4.5 fold | Fold Masking (Uncleaved/Unmasked Control), construct C5 [3]: 7470 fold

B13: IL-2 V7 (ligand)
chain: APTSSSTKKTQLQLEHLLLDLQMILNGINNYKNPKLTRMLTSKFYMPKKATELKHLQCLEESLKPLEEVLNLAQSKNFHLRPRDLISNINVIVLELKGSETTFMCEYADETATIVEFLNRWITFAQSIISTLT
EC50 (read off the curve), %pSTAT5+ of CD4+FoxP3+CD25+ cells [5]: ~3000 pM

B14
EC50 (read off the curve), %pSTAT5+ of CD4+FoxP3+CD25+ cells [5]: ~4000 pM
